From paper PMC5738090, “Functional implications of hexameric assembly of RraA proteins from Vibrio vulnificus” (PLoS ONE, 2017)

How the values were obtained:
Assay in all cases: SEC-MALS; Superdex 200 Increase 5/150 GL; proteins at 3 mg/ml; 20 mM Tris-HCl pH 8.0, 300 mM NaCl, 5% glycerol, 2 mM 2-mercaptoethanol
[1] = biological target: VvRraA1 (RraA ortholog 1 of Vibrio vulnificus), hexahistidine-tagged (Vibrio vulnificus MO6-24/O)
[2] = biological target: VvRraA2 (RraA ortholog 2 of Vibrio vulnificus), hexahistidine-tagged (Vibrio vulnificus MO6-24/O)
[3] = biological target: the molecule itself

In the case of “VvRraA1 (RraA ortholog 1 of Vibrio vulnificus), hexahistidine-tagged (natural protein)”, the stoichiometry N [1] is reported as 6.

“VvRraA2 (RraA ortholog 2 of Vibrio vulnificus), hexahistidine-tagged (natural protein)” showed a stoichiometry N [2] of 3.

B1: E. coli RraA (natural protein)
chain: MKYDTSELCDIYQEDVNVVEPLFSNFGGRASFGGQIITVKCFEDNGLLYDLLEQNGRGRVLVVDGGGSVRRALVDAELARLAVQNEWEGLVIYGAVRQVDDLEELDIGIQAMAAIPVGAAGEGIGESDVRVNFGGVTFFSGDHLYADNTGIILSEDPLDIE
notes: RraA, regulator of ribonuclease activity A, Escherichia coli; the construct is not described here; Hexamer by SEC-MALS (87.05 kDa); also called EcRraA
For B1, the “stoichiometry N” value [3] was 6.
